Paper PMC3458930

How the values were obtained:
caspase-3 = caspase-3 (UniProt P42574); assay: co-immunoprecipitation, Flag-tagged αB-crystallin; conditions: reference: wild type; sites S45
caspase-7 = caspase-7 (UniProt P55210); assay: co-immunoprecipitation, Flag-tagged αB-crystallin; conditions: reference: wild type; sites S45

binding against the reference (caspase-3): weaker | binding against the reference (caspase-7): weaker
Substance: αB-crystallin (from UniProt P02511) S45A
